Here are results for 1 molecule from publication PMC9851723.

The data set has as its target SARS-CoV-2 nucleocapsid protein (Np) (SARS-CoV-2, UniProt P0DTC9 1-419). Put plainly: SPR. On the technique in general: In SPR one partner is held on a chip, and binding of the other changes the refractive index at the surface.

B1: A48t-T20-A61t (DNA-BC) (ssDNA)
DNA: TTCCTTAGGGGCACCGCTACATTTTTTTTTTTTTTTTTTTTTACCTTTACAGATCGGATTCTGTGGGGCG
In turn, B1 came in with a Kd of 1.04 nM.

For orientation: Kd means a measure of binding affinity in units of concentration. Read a low Kd as tighter binding.
